# Assay results: patent US20230134571A1 (INTERNATIONAL AIDS VACCINE INITIATIVE, published 2023)
# Substitutions are numbered along the chain they refer to.
# B1: ePGDM13 (antibody, V domains shown)
# VH: QAQLVQSGPEVRKPGTSVKVSCKNPGNTLTTYDLHWVRQVPGQGLQWMGWISHEGDKKVIVERFKAKVTIDWDRSTNTAYLQLSGLTSEDTAVYYCAKGSKHRLRDYALYDEDGALNWAVDVDYLANLEFWGQGTAVTVSS
# VL: DIVLTQSPLSLSVTPGESASISCKSSHSLQHGDRNNYLAWYVQKPGRSPQLLLDLASERASGVPDRFSGSGSEKDFTLKISRVETEDVGTYYCMQGRESPWTFGQGTKVDIK
# B2: ePGDM5 (antibody, V domains shown)
# VH: B1 VH
# VL: B1 VL with I2F, S26D, L53I, E73R, S81D, T85A
# Biological target: HIV Env of isolate CNE8 (clade AE) (HIV)
# Experiment: cell-based or functional assay
Binder,IC50 (µg/ml) with constrains [µg/mL],IC80 (µg/ml) with constrains [µg/mL]
B1,0.005,0.022
B2,0.001,0.003

# Biological target: HIV Env of isolate TRO.11 (clade B) (HIV)
# Experiment: cell-based or functional assay
row,Binder,IC50 (µg/ml) with constrains [µg/mL]
1,B1,0.352
2,B2,0.315

# Biological target: HIV Env of isolate R1166.c01 (clade AE) (HIV)
# Experiment: cell-based or functional assay
Binder,IC50 (µg/ml) with constrains [µg/mL],IC80 (µg/ml) with constrains [µg/mL]
B1,0.194,0.777
B2,0.166,0.664

# Biological target: HIV Env of isolate 1006_11_C3_1601 (clade B) (HIV)
# Experiment: cell-based or functional assay
row,Binder,IC50 (µg/ml) with constrains [µg/mL]
1,B1,0.826
2,B2,0.473

# Biological target: HIV Env of isolate 231965.c01 (clade D) (HIV)
# Experiment: cell-based or functional assay
row,Binder,IC50 (µg/ml) with constrains [µg/mL]
1,B1,0.015
2,B2,0.009

# Biological target: HIV Env of isolate 0260.v5.c36 (clade A) (HIV)
# Experiment: cell-based or functional assay
Binder,IC50 (µg/ml) with constrains [µg/mL],IC80 (µg/ml) with constrains [µg/mL]
B1,0.025,0.098
B2,0.021,0.084

# Biological target: HIV Env of isolate C1080.c03 (clade AE) (HIV)
# Experiment: cell-based or functional assay
Binder,IC50 (µg/ml) with constrains [µg/mL],IC80 (µg/ml) with constrains [µg/mL]
B1,0.001,0.003
B2,0.003,0.011

# Biological target: HIV Env of isolate 3103.v3.c10 (clade ACD) (HIV)
# Experiment: cell-based or functional assay
Binder,IC50 (µg/ml) with constrains [µg/mL],IC80 (µg/ml) with constrains [µg/mL]
B1,0.09,0.36
B2,0.063,0.254

# Biological target: HIV Env of isolate 1056_10_TA11_1826 (clade B) (HIV)
# Experiment: cell-based or functional assay
row,Binder,IC50 (µg/ml) with constrains [µg/mL]
1,B1,1.51
2,B2,0.893

# Biological target: HIV Env of isolate 0330.v4.c3 (clade A) (HIV)
# Experiment: cell-based or functional assay
Binder,IC50 (µg/ml) with constrains [µg/mL],IC80 (µg/ml) with constrains [µg/mL]
B1,0.002,0.008
B2,0.003,0.01

# Biological target: HIV Env of isolate 191955_A11 (clade A) (HIV)
# Experiment: cell-based or functional assay
Binder,IC50 (µg/ml) with constrains [µg/mL],IC80 (µg/ml) with constrains [µg/mL]
B1,0.008,0.033
B2,0.021,0.083

# Biological target: HIV Env of isolate CNE58 (clade BC) (HIV)
# Experiment: cell-based or functional assay
row,Binder,IC50 (µg/ml) with constrains [µg/mL]
1,B1,0.003
2,B2,0.004

# Biological target: HIV Env of isolate CNE21 (clade BC) (HIV)
# Experiment: cell-based or functional assay
row,Binder,IC50 (µg/ml) with constrains [µg/mL]
1,B1,0.001
2,B2,0.002

# Biological target: HIV Env of isolate T250-4 a.k.a. CRF250 (clade AG) (HIV)
# Experiment: cell-based or functional assay
Binder,IC50 (µg/ml) with constrains [µg/mL],IC80 (µg/ml) with constrains [µg/mL]
B1,0.035,0.14
B2,0.065,0.261

# Biological target: HIV Env of isolate Ce704809221_1B3 (clade C) (HIV)
# Experiment: cell-based or functional assay
row,Binder,IC50 (µg/ml) with constrains [µg/mL]
1,B1,0.339
2,B2,0.187

# Biological target: HIV Env of isolate RHPA4259.7 (clade B) (HIV)
# Experiment: cell-based or functional assay
row,Binder,IC50 (µg/ml) with constrains [µg/mL]
1,B1,0.358
2,B2,0.464

# Biological target: HIV Env of isolate ZM53M.PB12 (clade C) (HIV)
# Experiment: cell-based or functional assay
row,Binder,IC50 (µg/ml) with constrains [µg/mL]
1,B1,0.005
2,B2,0.005

# Biological target: HIV Env of isolate REJO4541.67 (clade B) (HIV)
# Experiment: cell-based or functional assay
row,Binder,IC50 (µg/ml) with constrains [µg/mL]
1,B1,0.002
2,B2,0.001

# Biological target: HIV Env of isolate CNE30 (clade BC) (HIV)
# Experiment: cell-based or functional assay
row,Binder,IC50 (µg/ml) with constrains [µg/mL]
1,B1,> 100
2,B2,> 100

# Biological target: HIV Env of isolate CNE53 (clade BC) (HIV)
# Experiment: cell-based or functional assay
row,Binder,IC50 (µg/ml) with constrains [µg/mL]
1,B1,0.015
2,B2,0.02

# Biological target: HIV Env of isolate Ce1172_H1 (clade C) (HIV)
# Experiment: cell-based or functional assay
row,Binder,IC50 (µg/ml) with constrains [µg/mL]
1,B1,0.061
2,B2,0.016

# Biological target: HIV Env of isolate T235-47 (clade AG) (HIV)
# Experiment: cell-based or functional assay
Binder,IC50 (µg/ml) with constrains [µg/mL],IC80 (µg/ml) with constrains [µg/mL]
B1,0.005,0.019
B2,0.005,0.022

# Biological target: HIV Env of isolate HIV-0013095-2.11 (clade C) (HIV)
# Experiment: cell-based or functional assay
row,Binder,IC50 (µg/ml) with constrains [µg/mL]
1,B1,> 100
2,B2,> 100

# Biological target: HIV Env of isolate BJOX010000.06.2 (clade AE) (HIV)
# Experiment: cell-based or functional assay
Binder,IC50 (µg/ml) with constrains [µg/mL],IC80 (µg/ml) with constrains [µg/mL]
B1,0.979,3.92
B2,0.536,2.15

# Biological target: HIV Env of isolate HIV-16845-2.22 (clade C) (HIV)
# Experiment: cell-based or functional assay
row,Binder,IC50 (µg/ml) with constrains [µg/mL]
1,B1,> 100
2,B2,> 100
